In PMC11348219 one finds stoichiometry N data, which are given here for one molecule.

The target in this assay is mutant-1a anti-A scFv. As to the kind of experiment: non-reducing SDS-PAGE; elution fraction EfA1 of nickel affinity chromatography on a Coomassie-stained 15% SDS-PAGE gel, non-reducing.

“And” between values parts separate entries of the source, which are not always exact repeats. Equal values may be shown once.

B1: mutant-1a anti-A scFv (scFv, V domains shown)
VH: QVQLQQPGAELVKPGTSVKLSCKASGYNFTSYWINWVKLRPGQCLEWIGDIYPGSGITNYNEKFKSKATLTVDTSSSTAYMQLSSLASEDSALYYCAGQYGNLWFAYWGQGTLVTVSG
VL: DIQMTQTTSSLSASLGDRVTISCRASQDINNYLNWYQQKPDGTVKLLIHYTSRLHSGVPSRFSGSGSGTDYSLTISNLEQEDIATYFCQQGNTLPWTFGCGTKLEIK
By stoichiometry N is commonly meant a count of units in the complex or per binding partner. B1: the stoichiometry N is 2 and 3.
